# How the values were obtained:
# [1] = test system: bleomycin-induced pulmonary fibrosis; details: orally once daily, 14-day and 28-day groups; cited from earlier work
# [2] = test system: bleomycin-induced pulmonary fibrosis (BIPF); assay: Bleomycin-induced pulmonary fibrosis mouse model, prevention (inhalation from day 1); type: in vivo; details: for Ashcroft score (normal 0, control 6.25): nebulized 1 hour once daily for 10 days from 1 day after bleomycin
# Protocol: The experimental animals used were 8-week-old female C57BL/6N (KBSI, Daejeon, Korea) mice, and were set as a normal control group (Normal, PBS) and two dose of administration groups (composition of the present disclosure including rhHAPLN1 protein). The water was changed every two days and the mice were allowed to eat ad libitum, and the mice were placed in one cage of four, and the temperature in the room was kept at 21° C. to 24° C. and the humidity at 40% to 60%, and the day and night cycles were 12 hours each.
# To establish a bleomycin-induced pulmonary fibrosis (PF) model, 8-week-old female C57BL/6N mice were used, and divided into 4 groups (Normal, Control, 0.0005% (w/w) rhHAPLN1, 0.0015% (w/w) rhHAPLN1), with 4 mice per group, and the IPF disease induction method was referred to the paper by Liu et al. (Methods in Molecular Biology 2017, DOI: 10.1007/978-1-4939-7113-8_2) (see FIG. 12A). Administration of bleomycin (Bleomycin sulfate from Streptomyces verticillus. B8416; Sigma-Aldrich Co.) to induce idiopathic pulmonary fibrosis (IPF) was performed using a 1 ml-syringe and an oral dosing needle (Oral Zonde Needle 0.9×50 mm; 20 Guage) was used to anesthetize the patient and then carefully instillated orally intratracheally in a single 25 μl dose at a concentration of 2 U/kg, followed by nebulization with fresh 10 ml phosphate-buffered saline (1×PBS, pH 7.4; Gibco Co.) added dropwise to a nebulizer to generate nebulization and be freely inhaled.
# Starting 1 day after bleomycin administration, the control was a mixture of 50 μl of a stock solution consisting of 20 mM Tris-HCl, 0.5 M NaCl, pH 8.0, 50% glycerol and 10 ml PBS (1×, pH 7.4, Gibco Co.) solution, while the two groups for the compositions of the present disclosure were treated with 50 μl of rhHAPLN1 stock solution at a rhHAPLN1 weight ratio concentration of 0.0005% (w/w), in other words, 5,000 ng/ml, and 0.0015% (w/w), in other words, 15,000 ng/ml, respectively, were mixed in 10 ml PBS (1×, pH 7.4, Gibco Co.) and administered to each group once a day for 1 hour by nebulization via the nebulizer described above. The weight of each experimental animal was measured every 2 days to confirm that there was no change in weight, and a mass dosing system and aerosol chamber (Data Science International Co.) were used to generate the mist. […]
# Next, three tissue slides were prepared per mouse by cutting the middle portion of the left large lobe of the mouse, and three sections were photographed randomly on one slide, and then, for a total of nine sections, the stained darker part was distinguished from the unstained white part, and the area of the stained darker part was measured using Image J software, and each figure obtained was averaged to obtain an average value per mouse. […]
Molecule,level of TGFβ1 increased by bleomycin [1],level of periostin increased by bleomycin [1],"Ashcroft score (normal 0, control 6.25) ([2]; composition 1, rhHAPLN1 0.0005% (w/w))","Ashcroft score (normal 0, control 6.25) ([2]; composition 2, rhHAPLN1 0.0015% (w/w))",H&E lung tissue form (FIG. 12B) ([2]; rhHAPLN1 0.0015% (w/w)),average area of dark (fibrotic) H&E-stained lung area compared to control (FIG. 12C) ([2]; rhHAPLN1 0.0015% (w/w))
"Cc1ccc(=O)n(-c2ccccc2)c1 [pirfenidone, reference compound]",decreased,decreased,,,,
"rhHAPLN1: recombinant human HAPLN1 protein of SEQ ID NO: 1 produced in CHO-K1 cells, stabilized in acetic acid buffer, sucrose, PS80, pH 5.0 (protein, listed as Homo sapiens) MKSLLLLVLISICWADHLSDNYTLDHDRAIHIQAENGPHLLVEAEQAKVFSHRGGNVTLPCKFYRDPTAFGSGIHKIRIKWTKLTSDYLKEVDVFVSMGYHKKTYGGYQGRVFLKGGSDSDASLVITDLTLEDYGRYKCEVIEGLEDDTVVVALDLQGVVFPYFPRLGRYNLNFHEAQQACLDQDAVIASFDQLYDAWRGGLDWCNAGWLSDGSVQYPITKPREPCGGQNTVPGVRNYGFWDKDKSRYDVFCFTSNFNGRFYYLIHPTKLTYDEAVQACLNDGAQIAKVGQIFAAWKILGYDRCDAGWLADGSVRYPISRPRRRCSPTEAAVRFVGFPDKKHKLYGVYCFRAYN",,,5.25,0.5,quite similar to that of the normal group,reduced to be quite close to the normal group

# Reference: patent US20240350583A1, “COMPOSITION FOR PREVENTING OR TREATING FIBROTIC DISEASES, COMPRISING HAPLN1” (Chung Ang University Industry Academic Cooperation …, priority 2021, published 2024)
